These results are taken from publication PMC2606963.

The target in assay [1] is dynamic microtubules grown in buffer from purified (tyrosinated) tubulin (pig) (UniProt P02550). Kind of assay: single-molecule TIRF microscopy on dynamic microtubules.
Assay [2] has as its target dynamic microtubules grown in buffer from detyrosinated tubulin (tubulinΔY) (pig) (UniProt P02550). Kind of assay: TIRF microscopy on dynamic microtubules.

The substance “H2-GFP (GFP-tagged H2 fragment of CLIP-170) (domain or fragment)” had a mean dwell time at growing microtubule ends in assay [1] of 0.25 s. Further, in assay [2], the percent reduction of end binding against microtubules of tyrosinated tubulin was 87%.
With “EB1-GFP (full-length X. laevis EB1 fused to GFP) (natural protein)”, the mean single molecule dwell time at growing microtubule ends in assay [1] is 0.05 s.
